# Test results as given in US20140363428A1 (Chugai, published 2014).
# Residue numbers refer to the chain shown, from its start.
# B1: IgG1-F1191 (antibody)
# heavy: QVQLQESGPGLVKPSETLSLTCAVSGHSISHDHAWSWVRQPPGEGLEWIGFISYSGITNYNPSLQGRVTISRDNSKNTLYLQMNSLRAEDTAVYYCARSLARTTAMDYWGEGTLVTVSSASTKGPSVFPLAPSSKSTSGGTAALGCLVKDYFPEPVTVSWNSGALTSGVHTFPAVLQSSGLYSLSSVVTVPSSSLGTQTYICNVNHKPSNTKVDKKVEPKSCDKTHTCPPCPAPELLGGPSVFLFPPKPKDTLYISRTPEVTCVVVDVSHEDPEVKFNWYVDGVEVHNAKTKPREEQYNSTYRVVSVLTVLHQDWLNGKEYKCKVSNKALPAPIEKTISKAKGQPREPQVYTLPPSRDELTKNQVSLTCLVKGFYPSDIAVEWESNGQPENNYKTTPPVLDSDGSFFLYSKLTVDKSRWQQGNVFSCSVMHEALHYHVARKELSLSP
# light: not shown
# notes: EU numbering; copies: 2 + 2
# B2: IgG1-F1264 (antibody)
# heavy: B1 heavy with L237R, S241K, T258A, A439T
# light: not shown
# notes: EU numbering; copies: 2 + 2
# B3: IgG1-F1265 (antibody)
# heavy: B1 heavy with L237R, S241K, T258G, A439T
# light: not shown
# notes: EU numbering; copies: 2 + 2
# B4: IgG1-F1257 (antibody)
# heavy: B1 heavy with L237R, S241K, T309A, Q313A, A439T
# light: not shown
# notes: EU numbering; copies: 2 + 2
# B5: IgG1-F1205 (antibody)
# heavy: B1 heavy with T252V, T258Q, A439T
# light: not shown
# notes: EU numbering; copies: 2 + 2
# B6: IgG1-F1273 (antibody)
# heavy: B1 heavy with L237R, S241K, T258Q, A439T, R440K, E442D
# light: not shown
# notes: EU numbering; copies: 2 + 2
# B7: IgG1-F1272 (antibody)
# heavy: B1 heavy with L237R, S241K, S256A, H435D, A439T, R440K, E442D
# light: not shown
# notes: EU numbering; copies: 2 + 2
# B8: IgG1-F1279 (antibody)
# heavy: B1 heavy with L237R, S241K, T258G, A439T, R440K, E442D
# light: not shown
# notes: EU numbering; copies: 2 + 2
# B9: IgG1-F1243 (antibody)
# heavy: B1 heavy with L237R, S241K, S256T, A439T
# light: not shown
# notes: EU numbering; copies: 2 + 2
# B10: IgG1-F1211 (antibody)
# heavy: B1 heavy with L253H, A439T, R440Q, E442S
# light: not shown
# notes: EU numbering; copies: 2 + 2
# B11: IgG1-F1270 (antibody)
# heavy: B1 heavy with L237R, S241K, S256A, A439T, R440K, E442D
# light: not shown
# notes: EU numbering; copies: 2 + 2
# B12: IgG1-F1263 (antibody)
# heavy: B1 heavy with L237R, S241K, A439T, R440K, E442D
# light: not shown
# notes: EU numbering; copies: 2 + 2
# B13: IgG1-F1200 (antibody)
# heavy: B1 heavy with T252V, S256T, A439T
# light: not shown
# notes: EU numbering; copies: 2 + 2
# B14: IgG1-F1195 (antibody)
# heavy: B1 heavy with A439T, L443A
# light: not shown
# notes: EU numbering; copies: 2 + 2
# B15: IgG1-F1255 (antibody)
# heavy: B1 heavy with L237R, S241K, Q313A, A439T
# light: not shown
# notes: EU numbering; copies: 2 + 2
# B16: IgG1-F1229 (antibody)
# heavy: B1 heavy with I255V, A439T, R440Q, E442S
# light: not shown
# notes: EU numbering; copies: 2 + 2
# B17: IgG1-F1218 (antibody)
# heavy: B1 heavy with L253V, A439T, R440Q, E442S
# light: not shown
# notes: EU numbering; copies: 2 + 2
# B18: IgG1-F1282 (antibody)
# heavy: B1 heavy with L237R, S241K, T258N, A439T, R440K, E442D
# light: not shown
# notes: EU numbering; copies: 2 + 2
# B19: IgG1-F1271 (antibody)
# heavy: B1 heavy with L237R, S241K, S256A, H435D, A439T
# light: not shown
# notes: EU numbering; copies: 2 + 2
# B20: IgG1-F1208 (antibody)
# heavy: B1 heavy with L253A, A439T, R440Q, E442S
# light: not shown
# notes: EU numbering; copies: 2 + 2
# B21: IgG1-F1260 (antibody)
# heavy: B1 heavy with L237R, S241K, T309Q, Q313H, A439T
# light: not shown
# notes: EU numbering; copies: 2 + 2
# B22: IgG1-F1199 (antibody)
# heavy: B1 heavy with S256T, T258E, A439T
# light: not shown
# notes: EU numbering; copies: 2 + 2
# B23: IgG1-F1277 (antibody)
# heavy: B1 heavy with L237R, S241K, T258A, H435D, A439T
# light: not shown
# notes: EU numbering; copies: 2 + 2
# B24: IgG1-F1280 (antibody)
# heavy: B1 heavy with L237R, S241K, T258G, H435D, A439T
# light: not shown
# notes: EU numbering; copies: 2 + 2
# B25: IgG1-F1198 (antibody)
# heavy: B1 heavy with T258E, A439T
# light: not shown
# notes: EU numbering; copies: 2 + 2
# B26: IgG1-F1204 (antibody)
# heavy: B1 heavy with S256T, T258Q, A439T
# light: not shown
# notes: EU numbering; copies: 2 + 2
# B27: IgG1-F1261 (antibody)
# heavy: B1 heavy with L237R, S241K, A439T, E442D
# light: not shown
# notes: EU numbering; copies: 2 + 2
# B28: IgG1-F1192 (antibody)
# heavy: B1 heavy with A439G
# light: not shown
# notes: EU numbering; copies: 2 + 2
# B29: IgG1-F1207 (antibody)
# heavy: B1 heavy with Y254M, I334E, M430L, Y436S, V438Y, A439T, R440Q, E442S
# light: not shown
# notes: EU numbering; copies: 2 + 2
# B30: IgG1-F1256 (antibody)
# heavy: B1 heavy with L237R, S241K, Q313H, A439T
# light: not shown
# notes: EU numbering; copies: 2 + 2
# B31: IgG1-F1244 (antibody)
# heavy: B1 heavy with L237R, S241K, T258E, A439T
# light: not shown
# notes: EU numbering; copies: 2 + 2
# B32: IgG1-F1203 (antibody)
# heavy: B1 heavy with T258Q, A439T
# light: not shown
# notes: EU numbering; copies: 2 + 2
# B33: IgG1-F1251 (antibody)
# heavy: B1 heavy with L237R, S241K, T252V, T258Q, A439T
# light: not shown
# notes: EU numbering; copies: 2 + 2
# B34: IgG1-F1196 (antibody)
# heavy: B1 heavy with A439T, L443E
# light: not shown
# notes: EU numbering; copies: 2 + 2
# B35: IgG1-F1258 (antibody)
# heavy: B1 heavy with L237R, S241K, T309A, Q313H, A439T
# light: not shown
# notes: EU numbering; copies: 2 + 2
# B36: IgG1-F1246 (antibody)
# heavy: B1 heavy with L237R, S241K, T252V, S256T, A439T
# light: not shown
# notes: EU numbering; copies: 2 + 2
# B37: IgG1-F1217 (antibody)
# heavy: B1 heavy with L253T, A439T, R440Q, E442S
# light: not shown
# notes: EU numbering; copies: 2 + 2
# B38: IgG1-F1276 (antibody)
# heavy: B1 heavy with L237R, S241K, T258A, A439T, R440K, E442D
# light: not shown
# notes: EU numbering; copies: 2 + 2
# B39: IgG1-F1202 (antibody)
# heavy: B1 heavy with T252V, S256T, T258E, A439T
# light: not shown
# notes: EU numbering; copies: 2 + 2
# B40: IgG1-F1197 (antibody)
# heavy: B1 heavy with S256T, A439T
# light: not shown
# notes: EU numbering; copies: 2 + 2
# B41: IgG1-F1194 (antibody)
# heavy: B1 heavy with A439T, K441D
# light: not shown
# notes: EU numbering; copies: 2 + 2
# B42: IgG1-F1259 (antibody)
# heavy: B1 heavy with L237R, S241K, T309Q, Q313A, A439T
# light: not shown
# notes: EU numbering; copies: 2 + 2
# B43: IgG1-F1247 (antibody)
# heavy: B1 heavy with L237R, S241K, T252V, T258E, A439T
# light: not shown
# notes: EU numbering; copies: 2 + 2
# B44: IgG1-F1250 (antibody)
# heavy: B1 heavy with L237R, S241K, S256T, T258Q, A439T
# light: not shown
# notes: EU numbering; copies: 2 + 2
# B45: IgG1-F1283 (antibody)
# heavy: B1 heavy with L237R, S241K, T258N, H435D, A439T
# light: not shown
# notes: EU numbering; copies: 2 + 2
# B46: IgG1-F1253 (antibody)
# heavy: B1 heavy with L237R, S241K, T309A, A439T
# light: not shown
# notes: EU numbering; copies: 2 + 2
# B47: IgG1-F1201 (antibody)
# heavy: B1 heavy with T252V, T258E, A439T
# light: not shown
# notes: EU numbering; copies: 2 + 2
# B48: IgG1-F1232 (antibody)
# heavy: B1 heavy with A439T, R440K, E442D
# light: not shown
# notes: EU numbering; copies: 2 + 2
# B49: IgG1-F1252 (antibody)
# heavy: B1 heavy with L237R, S241K, T252V, S256T, T258Q, A439T
# light: not shown
# notes: EU numbering; copies: 2 + 2
# B50: IgG1-F1269 (antibody)
# heavy: B1 heavy with L237R, S241K, H435D, A439T, R440K, E442D
# light: not shown
# notes: EU numbering; copies: 2 + 2
# B51: IgG1-F1281 (antibody)
# heavy: B1 heavy with L237R, S241K, T258G, H435D, A439T, R440K, E442D
# light: not shown
# notes: EU numbering; copies: 2 + 2
# B52: IgG1-F1275 (antibody)
# heavy: B1 heavy with L237R, S241K, T258Q, H435D, A439T, R440K, E442D
# light: not shown
# notes: EU numbering; copies: 2 + 2
# B53: IgG1-F1266 (antibody)
# heavy: B1 heavy with L237R, S241K, T258N, A439T
# light: not shown
# notes: EU numbering; copies: 2 + 2
# B54: IgG1-F1230 (antibody)
# heavy: B1 heavy with A439T, E442D
# light: not shown
# notes: EU numbering; copies: 2 + 2
# B55: IgG1-F1254 (antibody)
# heavy: B1 heavy with L237R, S241K, T309Q, A439T
# light: not shown
# notes: EU numbering; copies: 2 + 2
# B56: IgG1-F1249 (antibody)
# heavy: B1 heavy with L237R, S241K, T258Q, A439T
# light: not shown
# notes: EU numbering; copies: 2 + 2
# B57: IgG1-F1231 (antibody)
# heavy: B1 heavy with A439T, R440K
# light: not shown
# notes: EU numbering; copies: 2 + 2
# B58: IgG1-F1274 (antibody)
# heavy: B1 heavy with L237R, S241K, T258Q, H435D, A439T
# light: not shown
# notes: EU numbering; copies: 2 + 2
# B59: IgG1-F1216 (antibody)
# heavy: B1 heavy with L253S, A439T, R440Q, E442S
# light: not shown
# notes: EU numbering; copies: 2 + 2
# B60: IgG1-F1206 (antibody)
# heavy: B1 heavy with T252V, S256T, T258Q, A439T
# light: not shown
# notes: EU numbering; copies: 2 + 2
# Target: T1, soluble human FcRn (human, UniProt P55899 24-297; P61769 21-119)
# T1 construct: Heterodimer of FcRn alpha chain and beta2-microglobulin; also called hFcRn
# T1 sequence (P55899 24-297 limits assumed, chain 1 of 2): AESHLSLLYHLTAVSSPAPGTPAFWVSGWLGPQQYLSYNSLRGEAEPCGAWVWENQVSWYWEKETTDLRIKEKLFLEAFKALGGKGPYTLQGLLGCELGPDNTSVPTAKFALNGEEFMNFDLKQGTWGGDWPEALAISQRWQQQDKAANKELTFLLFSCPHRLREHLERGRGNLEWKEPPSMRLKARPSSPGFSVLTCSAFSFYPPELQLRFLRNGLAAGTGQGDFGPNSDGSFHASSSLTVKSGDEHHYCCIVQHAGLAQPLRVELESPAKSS
# T1 sequence (P61769 21-119 limits assumed, chain 2 of 2): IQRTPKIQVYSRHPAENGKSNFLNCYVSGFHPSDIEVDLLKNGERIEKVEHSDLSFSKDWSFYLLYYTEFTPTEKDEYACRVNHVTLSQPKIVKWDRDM
# Assay: SPR (Biacore T100), antibody captured by protein L, hFcRn as analyte, pH 7.0, 25 C;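 note: KD calculated from fitted association and dissociation rate constants of the sensorgrams, protein L amine-coupled to the sensor chip, sodium phosphate running buffer with NaCl and Tween20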
# Experimental: An appropriate amount of protein L (ACTIGEN) was immobilized onto Sensor chip CM4 (GE Healthcare) by the amino coupling method, and the chip was allowed to capture an antibody of interest. Then, diluted FcRn solutions and running buffer (as a reference solution) were injected to allow human FcRn to interact with the antibody captured on the sensor chip. The running buffer used comprised 50 mmol/l sodium phosphate, 150 mmol/l NaCl, and 0.05% (w/v) Tween20 (pH 7.0). FcRn was diluted using each buffer. The chip was regenerated using 10 mmol/l glycine-HCl (pH 1.5). Assays were carried out exclusively at 25 degrees C. The association rate constant ka (1/Ms) and dissociation rate constant kd (1/s), both of which are kinetic parameters, were calculated based on the sensorgrams obtained in the assays, and KD (M) of each antibody for human FcRn was determined from these values. Each parameter was calculated using Biacore T100 Evaluation Software (GE Healthcare).
row,Binder,Kd [nM]
1,B1,210
2,B2,130
3,B3,160
4,B4,78
5,B5,200
6,B6,150
7,B7,170
8,B8,120
9,B9,130
10,B10,1200
11,B11,120
12,B12,120
13,B13,130
14,B14,180
15,B15,110
16,B16,2800
17,B17,250
18,B18,77
19,B19,200
20,B20,570

row,Binder,Kd [nM]
1,B21,65
2,B22,62
3,B23,170
4,B24,210
5,B25,78
6,B26,120
7,B27,140
8,B28,130
9,B29,1100
10,B30,160
11,B31,100
12,B32,150
13,B33,280
14,B34,150
15,B35,110
16,B36,170
17,B37,1100
18,B38,100
19,B39,88
20,B40,95

row,Binder,Kd [nM]
1,B41,160
2,B42,45
3,B43,150
4,B44,170
5,B45,130
6,B46,110
7,B47,110
8,B48,98
9,B49,230
10,B50,170
11,B51,170
12,B52,210
13,B53,100
14,B54,110
15,B55,64
16,B56,210
17,B57,97
18,B58,250
19,B59,1200
20,B60,170
